Experimental data: publication PMC4958246

Biological target: polymerized rabbit skeletal muscle actin (F-actin) (rabbit) (UniProt P68135)
Assay: co-sedimentation; proteins incubated with polymerized rabbit skeletal actin (40 µl of a 1-mg/ml stock; 50 mM KCl, 2 mM MgCl2, 1 mM ATP); WD0830 at 40 ng/ml final; centrifuged at 14,000 x g 1 h 24°C, then 150,000 x g 1.5 h 24°C; supernatants and pellets on silver-stained SDS-PAGE, densitometry with ImageJ

**Q.** With “Wolbachia pipientis wMel protein WD0830 (Wolbachia actin-localizing effector 1) (natural protein)” as the substance, how does the percent of the protein in the pellet with actin read?
**A.** Its percent of the protein in the pellet with actin is 24%.
